Results as given in paper PMC2648068 (Journal of immunology (Baltimore, Md. : 1950), 2009).

Assays:
Test in all cases: ELISA
[1] = target: T1, recombinant human TLR1 (human, UniProt Q15399 25-580)
T1 sequence (looked up): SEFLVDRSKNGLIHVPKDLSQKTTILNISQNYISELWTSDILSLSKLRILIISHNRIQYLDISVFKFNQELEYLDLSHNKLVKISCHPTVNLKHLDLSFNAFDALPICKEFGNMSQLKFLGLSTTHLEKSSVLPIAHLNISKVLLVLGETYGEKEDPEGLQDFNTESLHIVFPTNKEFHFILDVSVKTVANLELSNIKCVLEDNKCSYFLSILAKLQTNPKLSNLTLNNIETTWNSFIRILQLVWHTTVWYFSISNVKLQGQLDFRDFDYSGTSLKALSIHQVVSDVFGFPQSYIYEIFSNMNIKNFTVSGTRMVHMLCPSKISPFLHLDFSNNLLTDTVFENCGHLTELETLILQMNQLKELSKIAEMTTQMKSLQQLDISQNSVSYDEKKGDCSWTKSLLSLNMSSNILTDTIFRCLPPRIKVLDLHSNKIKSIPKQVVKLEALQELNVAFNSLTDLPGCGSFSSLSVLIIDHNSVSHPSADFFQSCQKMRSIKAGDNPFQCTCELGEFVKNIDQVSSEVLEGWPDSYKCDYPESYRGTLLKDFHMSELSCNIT

[2] = target: T2, recombinant mouse TLR1 (mouse, UniProt Q9EPQ1 26-582)
T2 sequence (looked up): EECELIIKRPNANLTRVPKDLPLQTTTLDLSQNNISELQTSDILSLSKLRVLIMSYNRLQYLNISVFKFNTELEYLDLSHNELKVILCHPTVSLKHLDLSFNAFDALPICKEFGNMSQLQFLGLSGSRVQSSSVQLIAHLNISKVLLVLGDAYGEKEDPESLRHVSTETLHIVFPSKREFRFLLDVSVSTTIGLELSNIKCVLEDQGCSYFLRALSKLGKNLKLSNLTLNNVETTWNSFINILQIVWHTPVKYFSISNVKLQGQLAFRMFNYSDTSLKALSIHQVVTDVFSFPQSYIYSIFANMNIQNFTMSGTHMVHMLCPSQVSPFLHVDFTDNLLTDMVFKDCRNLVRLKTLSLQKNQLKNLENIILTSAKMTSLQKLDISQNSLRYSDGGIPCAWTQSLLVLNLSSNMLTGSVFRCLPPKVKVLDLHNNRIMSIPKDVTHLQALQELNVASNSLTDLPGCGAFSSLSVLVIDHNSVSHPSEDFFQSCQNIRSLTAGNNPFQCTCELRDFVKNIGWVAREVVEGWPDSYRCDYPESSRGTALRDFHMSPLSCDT

[3] = target: recombinant human TLR2 (human, UniProt O60603 21-588)
recombinant human TLR2, sequence (O60603 21-588): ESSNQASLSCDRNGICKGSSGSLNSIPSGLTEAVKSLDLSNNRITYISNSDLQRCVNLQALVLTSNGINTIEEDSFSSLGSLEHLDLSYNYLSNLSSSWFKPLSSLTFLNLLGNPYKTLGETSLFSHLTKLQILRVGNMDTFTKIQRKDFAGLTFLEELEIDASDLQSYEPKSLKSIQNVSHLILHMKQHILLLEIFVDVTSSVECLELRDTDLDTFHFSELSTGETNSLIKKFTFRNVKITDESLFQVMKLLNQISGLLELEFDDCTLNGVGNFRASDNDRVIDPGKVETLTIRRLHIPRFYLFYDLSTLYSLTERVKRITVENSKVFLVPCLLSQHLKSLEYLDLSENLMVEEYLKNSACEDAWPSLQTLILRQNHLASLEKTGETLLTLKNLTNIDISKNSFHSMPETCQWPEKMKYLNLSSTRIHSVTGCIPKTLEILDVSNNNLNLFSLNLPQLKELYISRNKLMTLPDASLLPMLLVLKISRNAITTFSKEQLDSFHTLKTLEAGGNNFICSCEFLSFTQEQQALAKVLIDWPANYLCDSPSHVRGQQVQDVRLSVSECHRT

[4] = target: T3, recombinant mouse TLR2 (mouse, UniProt Q9QUN7 25-587)
T3 sequence (looked up): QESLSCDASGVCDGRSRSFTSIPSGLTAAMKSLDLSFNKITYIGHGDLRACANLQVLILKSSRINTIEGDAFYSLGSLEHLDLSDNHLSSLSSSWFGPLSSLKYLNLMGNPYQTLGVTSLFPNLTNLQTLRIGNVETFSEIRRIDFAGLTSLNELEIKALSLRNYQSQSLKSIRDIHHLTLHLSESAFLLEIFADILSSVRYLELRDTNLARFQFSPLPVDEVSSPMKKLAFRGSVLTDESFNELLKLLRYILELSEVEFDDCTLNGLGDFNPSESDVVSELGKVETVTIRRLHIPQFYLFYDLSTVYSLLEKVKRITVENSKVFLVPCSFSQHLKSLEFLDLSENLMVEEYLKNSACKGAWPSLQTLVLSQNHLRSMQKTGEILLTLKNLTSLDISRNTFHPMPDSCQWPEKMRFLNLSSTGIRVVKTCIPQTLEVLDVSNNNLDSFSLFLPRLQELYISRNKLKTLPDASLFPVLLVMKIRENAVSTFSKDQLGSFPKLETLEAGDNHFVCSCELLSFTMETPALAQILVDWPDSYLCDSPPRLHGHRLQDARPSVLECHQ

Measured: binding result

B1: LT-IIb-B5, pentameric B subunit of type IIb E. coli enterotoxin (wild-type) (natural protein)
chain: GASQFFKDNCNRTTASLVEGVELTKYISDINNNTDGMYVVSSTGGVWRISRAKDYPDNVMTAEMRKIAMAAVLSGMRVNMCASPASSPNVIWAIELEAE
binds: all assays above
